Numbering of substitutions follows the chain as printed.
Assays:
[1] = molecular target: T1, TweakR on cells (TweakR-expressing cells, TweakR transfectant cell line, A375 melanoma cells, tumor tissue) (human, UniProt Q9NP84 28-129); test: cell-based or functional assay
T1 sequence: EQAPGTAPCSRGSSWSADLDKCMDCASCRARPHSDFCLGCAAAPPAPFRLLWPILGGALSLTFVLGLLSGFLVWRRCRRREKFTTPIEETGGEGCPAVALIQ

[2] = molecular target: T2, soluble form of the extracellular domain of human TweakR (human, UniProt Q9NP84 28-80); test: Biacore; antibody captured by immobilized anti-Fc, soluble TweakR extracellular domain injected
T2 construct: also called soluble TweakR extracellular domain
T2 sequence: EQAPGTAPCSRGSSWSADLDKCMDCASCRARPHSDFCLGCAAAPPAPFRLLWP
Protocol: The relative binding affinities of various mouse and humanized anti-TweakR antibodies were assessed in a Biacore assay using a soluble form of the extracellular domain of human TweakR. Briefly, goat anti-mouse Fc antibody or goat anti-human Fc was first immobilized to the biosensor surface followed by capture of antibody on the test surface. Subsequently, the soluble form of the extracellular domain of human TweakR was injected to measure binding to, and dissociation from, antibody.

human TweakR (R56P) = human TweakR (R56P) (human, UniProt Q9NP84 28-80, limits assumed); test: binding assay read as OD650, single bar per antibody and target; format and antibody concentration not given
mouse TweakR = molecular target: T3, mouse TweakR (mouse, UniProt Q9CR75 28-80, limits assumed); test: as above
T3 construct: also called mouse TweakR protein
T3 sequence (looked up): T2 sequence with A7S, R11S, R29P, P47H

B1: humanized anti-TweakR antibody PDL192 (antibody, human IgG1, V domains shown)
VH: EVQLVESGGGLVQPGGSLRLSCAASGFTFSSYWMSWVRQAPGKGLEWVAEIRLKSDNYATHYAESVKGRFTISRDDSKNSLYLQMNSLRAEDTAVYYCTGYYADAMDYWGQGTLVTVSS
VL: DIQMTQSPSSLSASVGDRVTITCRASQSVSTSSYSYMHWYQQKPGKAPKLLIKYASNLESGVPSRFSGSGSGTDFTLTISSLQPEDFATYYCQHSWEIPYTFGGGTKVEIK
- agonist activity (IL-8 release assay) [1]: ~25%

B2: humanized anti-TweakR antibody PDL400 (antibody, V domains shown)
VH: QVQLVQSGAEVKKPGASVKISCKVSGYTFTDFIIAWVKQAPGKGLEWIGEIYPGTGRTYYSEKFRGKATLTADKSTSTAYMELSSLRSEDTAVYYCARRTIYYDYDGDYWGQGTTVTVSS
VL: DIVMTQSPLSLPVTPGEPASISCRSSKSLLHSNGITYLYWYLQKPGQSPQLLIYQMSNLASGVPDRFSSSGSGTDFTLKISRVEAEDVGVYYCAHNLELPWTFGGGTKVEIK
notes: constant regions not expressly stated
- agonist activity (IL-8 release assay) [1]: ~8%
- Kd [2]: 0.58 nM

B3: murine anti-TweakR antibody ITEM-1 (antibody, V domains shown)
VH: EVKLEESGGGLVQPGGSMKLSCVASGFSFSNYWMNWVRQSPEKGLEWVAEIRLKSNNYATHYAESVKGRFTISRHDSKSSVYLQMNNLRAEDTGIYYCTRAYADYFDYWGQGTTLTVSS
VL: DIVLTQSPASLVVSLGQRATISCRASQSVSTSTYSYMHWYQQKPGQPPKILIKYASNLESGVPARFSGSGSGTDFTLNIHPVEEEDTATYYCQHSWEIPYTFGGGTKLEIKR
- agonist activity (IL-8 release assay) [1]: ~25%

B4: murine anti-TweakR antibody ITEM-3 (antibody, V domains shown)
VH: EVKLEESGGGLVQPGGSMKLSCVVSGLTFSRYWMSWVRQSPEKGLEWVAEIRVKSDNYATTHYAESVKGKFTVSRDDSKSRLYLQMSSLRPEDTGIYYCIGYYADAMDYWGQGTSVTVSS
VL: B3 VL with T33S, I50L, N57K, E59D, Y100W, L108M
- agonist activity (IL-8 release assay) [1]: ~37%

B5: murine anti-TweakR antibody 136.1 (antibody, V domains shown)
VH: EVKLEESGGGLVQPGGSMKLSCVASGFTFNNYWMSWVRQSPEKGLEWLAEIRLKSDNYATHYAESVKGKFTISRDDSKSRLYLQMNNLRAENTGIYYCTGGFADYFDYWGQGTTLTVSS
VL: B3 VL with V12T, T33S, H38Q, K43R, I50L, S56T, E59D, T87A
notes: Mouse monoclonal antibody
- agonist activity (IL-8 release assay) [1]: ~278%
- Kd [2]: 0.68 nM

B6: murine anti-TweakR antibody 18.3.3 (antibody, V domains shown)
VH: EVKLGESGGGLVQPGGSMKLSCVASGFPFTKYWMNWVRQSPEKGLEWVAEIRLKSDNYATHYAESAKGRFTISRDDSRSSVYLQMNNLRAEDTAIYYCSPTYADTMDYWGQGTSVTVSS
VL: B3 VL with V12A, R24K, H38Q, K43R, P47S, I50L, N57K, E59D, I98L, K107R
notes: Mouse monoclonal antibody
- agonist activity (IL-8 release assay) [1]: ~14%
- Kd [2]: 0.23 nM
- binding result (human TweakR (R56P)): binds
- binding result (mouse TweakR): binds

B7: murine anti-TweakR antibody 19.2.1 (antibody, mouse IgG2a, V domains shown)
VH: EVKLEESGGGLVQPGGSMKLSCVASGFTFSSYWMSWVRQSPEKGLEWVAEIRLKSDNYATHYAESVKGKFTISRDDSKSRLYLQMNSLRAEDTGIYYCTGYYADAMDYWGQGTSVTVSS
VL: DIVLTQSPASLAVSLGQRATISCRASQSVSTSSYSYMHWYQQKPGQPPKLLIKYASNLESGVPARFSGSGSGTDFTLNIHPVEEEDTATYYCQHSWEIPYTFGGGTKLEIK
- agonist activity (IL-8 release assay) [1]: ~39%
- Kd [2]: 7.12 nM

Source: patent publication US20090074762A1 (PDL BIOPHARMA, published 2009)
